Biological target: human epidermal growth factor receptor expressed on M3-EGFR cells (human) (UniProt P00533)

Row | Substance | average fluorescence of M3-EGFR cell nuclei (anti-His-Tag Alexa Fluor 647) after 2 h incubation with 300 nM MNT (Relative units (RU))
1 | EGF-DTox-HMP-NLS-[Nrf2-peptide] modular nanotransporter | 44.7
2 | DTox-HMP-NLS-EGF modular nanotransporter | 44.3

Source: article PMC9697344
